Blank lines part the entries; values can stand above or below the binder they belong to. Ends that are not written are not given here.
Experiments:
[1] = target: T1, Recombinant 6x his tagged full-length LSD2 (human, UniProt Q8NB78 1-822); assay: GST pulldown of purified His-LSD2, SDS-PAGE, Coomassie
T1 construct: range 1-822; Expressed in and purified from Sf9 insect cells; also called His-LSD2; full-length His-LSD2
T1 sequence: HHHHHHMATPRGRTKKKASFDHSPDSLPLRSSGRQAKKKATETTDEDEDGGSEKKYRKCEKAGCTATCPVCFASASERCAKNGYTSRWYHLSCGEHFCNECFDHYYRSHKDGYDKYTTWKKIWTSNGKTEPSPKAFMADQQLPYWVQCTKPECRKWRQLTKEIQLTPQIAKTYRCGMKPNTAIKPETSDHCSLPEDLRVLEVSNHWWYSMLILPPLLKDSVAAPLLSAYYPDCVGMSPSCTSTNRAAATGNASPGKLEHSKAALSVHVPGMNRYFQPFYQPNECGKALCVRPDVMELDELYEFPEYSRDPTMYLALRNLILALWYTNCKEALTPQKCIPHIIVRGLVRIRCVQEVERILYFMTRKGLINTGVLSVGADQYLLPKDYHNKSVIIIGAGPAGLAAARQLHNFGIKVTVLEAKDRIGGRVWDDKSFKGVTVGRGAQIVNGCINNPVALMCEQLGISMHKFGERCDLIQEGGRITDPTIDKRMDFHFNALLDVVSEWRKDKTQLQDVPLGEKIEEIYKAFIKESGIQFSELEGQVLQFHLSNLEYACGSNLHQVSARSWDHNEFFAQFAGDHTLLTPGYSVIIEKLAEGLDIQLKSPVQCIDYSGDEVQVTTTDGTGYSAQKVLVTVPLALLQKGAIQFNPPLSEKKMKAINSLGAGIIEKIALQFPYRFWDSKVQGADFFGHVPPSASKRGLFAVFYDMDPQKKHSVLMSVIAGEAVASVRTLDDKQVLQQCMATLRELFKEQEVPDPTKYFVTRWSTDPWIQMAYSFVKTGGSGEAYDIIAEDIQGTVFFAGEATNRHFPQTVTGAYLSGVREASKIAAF
Procedure: DH, dehydrogenase domain; black box, AT-hook motif. FIG. 2A discloses “PWWP” as SEQ ID NO: 63. […] Molecular masses corresponding to mono- and di-methylated H3K4 peptides (residues 1-21) are denoted as me1 and me2, respectively.
(§1) After washed 4 times with same buffer at 4° C., glutathione agarose beads were boiled in 1× SDS sample loading buffer. Elute was resolved on a 15% SDS-PAGE gel and stained by coomassie blue.

[2] = target: T2, Endogenous LSD2 (human cells) (human, UniProt Q8NB78 1-822, limits assumed); assay: tandem affinity purification from HeLa, immunoblot with anti-LSD2
T2 construct: also called KDM1b; AOF1
T2 sequence (looked up): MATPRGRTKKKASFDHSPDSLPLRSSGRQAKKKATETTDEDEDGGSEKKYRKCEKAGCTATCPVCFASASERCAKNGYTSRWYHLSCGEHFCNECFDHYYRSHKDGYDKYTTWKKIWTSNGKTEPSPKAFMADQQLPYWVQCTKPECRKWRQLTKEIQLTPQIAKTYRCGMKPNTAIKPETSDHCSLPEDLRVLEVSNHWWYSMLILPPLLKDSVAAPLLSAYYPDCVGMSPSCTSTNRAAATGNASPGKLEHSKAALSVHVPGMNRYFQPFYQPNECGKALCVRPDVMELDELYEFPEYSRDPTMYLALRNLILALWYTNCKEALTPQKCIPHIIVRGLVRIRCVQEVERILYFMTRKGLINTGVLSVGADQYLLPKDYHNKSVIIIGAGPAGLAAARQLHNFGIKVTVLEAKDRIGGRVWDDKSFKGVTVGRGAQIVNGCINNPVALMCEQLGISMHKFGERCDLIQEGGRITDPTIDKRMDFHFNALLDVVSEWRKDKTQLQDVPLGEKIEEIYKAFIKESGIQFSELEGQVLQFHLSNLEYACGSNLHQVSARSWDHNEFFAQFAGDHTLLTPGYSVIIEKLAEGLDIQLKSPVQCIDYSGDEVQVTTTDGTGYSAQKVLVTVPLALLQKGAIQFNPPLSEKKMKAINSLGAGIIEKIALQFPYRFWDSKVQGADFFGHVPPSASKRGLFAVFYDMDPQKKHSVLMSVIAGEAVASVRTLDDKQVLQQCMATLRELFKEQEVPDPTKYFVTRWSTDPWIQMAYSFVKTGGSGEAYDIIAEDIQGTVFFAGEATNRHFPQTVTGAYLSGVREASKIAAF

[3] = target: Endogenous LSD1 (HeLa cells) (human, UniProt O60341 1-852); assay: tandem affinity purification, immunoblot with anti-LSD1
[4] = target: FLAG-HA tagged LSD1 bait protein (stably expressed in HeLa, tandem affinity purified) (human, UniProt O60341 1-852); assay: tandem affinity purification, immunoblot with anti-NPAC
[5] = target: T1, Recombinant 6x his tagged full-length …; assay: GST pulldown of His-LSD2, SDS-PAGE, Coomassie
Procedure: FIG. 5B discloses SEQ ID NO: 51. […] FIG. 5D discloses SEQ ID NOS 63 and 76, respectively, in order of appearance. […] See also FIG. 6G.
as §1

[6] = target: T3, Human LSD2 (residues 51-822) (human, UniProt Q8NB78 51-822); assay: ITC, 15 °C; 3 mM peptide injected into 0.2 mM LSD2 (residues 51-822)
T3 construct: range 51-822; Expressed in Sf9 cells with a His6 tag removed by 3C protease; used for ITC; also called KDM1b; AOF1
T3 sequence (looked up): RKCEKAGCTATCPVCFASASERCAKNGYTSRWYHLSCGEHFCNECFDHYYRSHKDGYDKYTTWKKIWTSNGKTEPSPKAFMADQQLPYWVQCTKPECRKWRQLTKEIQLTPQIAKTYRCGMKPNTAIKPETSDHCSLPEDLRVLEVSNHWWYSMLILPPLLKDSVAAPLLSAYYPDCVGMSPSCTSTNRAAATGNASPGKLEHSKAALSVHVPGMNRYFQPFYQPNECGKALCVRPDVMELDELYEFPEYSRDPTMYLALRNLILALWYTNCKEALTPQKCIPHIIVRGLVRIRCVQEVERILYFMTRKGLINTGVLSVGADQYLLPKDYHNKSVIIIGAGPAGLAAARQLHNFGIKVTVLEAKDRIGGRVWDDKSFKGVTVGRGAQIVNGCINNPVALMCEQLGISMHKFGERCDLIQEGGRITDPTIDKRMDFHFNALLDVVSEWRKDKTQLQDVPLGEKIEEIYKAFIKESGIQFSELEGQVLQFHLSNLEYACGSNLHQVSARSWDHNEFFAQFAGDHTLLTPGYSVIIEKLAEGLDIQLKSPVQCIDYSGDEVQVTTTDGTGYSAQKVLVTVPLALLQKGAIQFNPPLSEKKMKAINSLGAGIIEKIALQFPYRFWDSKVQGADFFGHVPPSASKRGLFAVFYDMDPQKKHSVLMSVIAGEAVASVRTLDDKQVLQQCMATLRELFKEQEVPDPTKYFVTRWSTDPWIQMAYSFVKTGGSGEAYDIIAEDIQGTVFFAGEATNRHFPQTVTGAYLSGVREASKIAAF
Procedure: Isothermal Titration Calorimetry (ITC) binding study. […] All proteins and peptides were prepared in 10 mM HEPES, pH 8.0, and 0.1 M NaCl. The data were fitted by software Origin 7.0.

B1: GST-NP.d6 (NPAC with deletion of the linker region, residues 152-252) (other, not shown: a dimerising Fc or GST; small tags and cut ends)
chain: MAAVSLRLGDLVWGKLGRYPPWPGKIVNPPKDLKKPRGKKCFFVKFFGTEDHAWIKVEQLKPYHAHKEEMIKINKGKRFQQAVDAVEEFLRRAKGKDQTSSHNSSDDKNRRNSSEERSRPNSGDEKRKLSLSEGKVKKNMGEGKKRVSSGSAADSTAVNGSITPTDKKIGFLGLGLMGSGIVSNLLKMGHTVTVWNRTAEKCDLFIQEGARLGRTPAEVVSTCDITFACVSDPKAAKDLVLGPSGVLQGIRPGKCYVDMSTVDADTVTELAQVIVSRGGRFLEAPVSGNQQLSNDGMLVILAAGDRGLYEDCSSCFQAMGKTSFFLGEVGNAAKMMLIVNMVQGSFMATIAEGLTLAHVTGQSQQTLLDILNQGQLASIFLDQKCQNILQGNFKPDFYLKYIQKDLRLAIALGDAVNHPTPMAAAANEVYKRAKALDQSDNDMSAVYRAYIH
notes: The flanking ranges are derived from that
- binding result [1]: no binding

B5: GST-NP.d7 (NPAC residues 152-186, containing the AT hook motif) (other)
chain: SERGSKSPLKRAQEQSPRKRGRPPKDEKDLTIPES
modifications: also: GST tag fusion, tag and linker sequence not given here
notes: not shown: glutathione S-transferase (GST) tag from vector pGEX-4T-1
- binding result [5]: no binding

Binder: DPHFHHFLLSQT (also called wild-type NPAC peptide) [NPAC.214-225.WT (wild-type NPAC dodecapeptide, residues 214-225)]
- Binding ratio [6]: 1.06
- Kd [6]: 920 nM
- Δ H [6]: -8.48 kcal/mol
- Δ S [6]: -1.82 cal/mol/deg

B8: GST-NP.d1 (NPAC residues 1-150, PWWP domain) (other)
chain: MAAVSLRLGDLVWGKLGRYPPWPGKIVNPPKDLKKPRGKKCFFVKFFGTEDHAWIKVEQLKPYHAHKEEMIKINKGKRFQQAVDAVEEFLRRAKGKDQTSSHNSSDDKNRRNSSEERSRPNSGDEKRKLSLSEGKVKKNMGEGKKRVSSG
notes: as for B5
- binding result [1]: no binding

Other lines, results leading:

- binding result [2]: binds
- binding result [3]: no binding
B2: FLAG-HA tagged NPAC (N-terminal FLAG-HA, stably expressed in HeLa, tandem affinity purified) (other)
chain: MAAVSLRLGDLVWGKLGRYPPWPGKIVNPPKDLKKPRGKKCFFVKFFGTEDHAWIKVEQLKPYHAHKEEMIKINKGKRFQQAVDAVEEFLRRAKGKDQTSSHNSSDDKNRRNSSEERSRPNSGDEKRKLSLSEGKVKKNMGEGKKRVSSGSSERGSKSPLKRAQEQSPRKRGRPPKDEKDLTIPESSTVKGMMAGPMAAFKWQPTASEPVKDADPHFHHFLLSQTEKPAVCYQAITKKLKICEEETGSTSIQAADSTAVNGSITPTDKKIGFLGLGLMGSGIVSNLLKMGHTVTVWNRTAEKCDLFIQEGARLGRTPAEVVSTCDITFACVSDPKAAKDLVLGPSGVLQGIRPGKCYVDMSTVDADTVTELAQVIVSRGGRFLEAPVSGNQQLSNDGMLVILAAGDRGLYEDCSSCFQAMGKTSFFLGEVGNAAKMMLIVNMVQGSFMATIAEGLTLAHVTGQSQQTLLDILNQGQLASIFLDQKCQNILQGNFKPDFYLKYIQKDLRLAIALGDAVNHPTPMAAAANEVYKRAKALDQSDNDMSAVYRAYIH
notes: Bait of the purified NPAC complex; also called FLAG:HA-NPAC; NPAC complex; not shown: N-terminal FLAG-HA tag from pOZ-N vector

- binding result [4]: no binding
B3: Endogenous NPAC (human cells) (other)
chain: B2 chain
notes: Endogenous protein of HeLa cells, detected by immunoblot in purified complexes; also called GLYR1; NP60

- binding result [1]: no binding
B4: GST-NP.d5 (NPAC residues 262-553, dehydrogenase domain) (other)
chain: SITPTDKKIGFLGLGLMGSGIVSNLLKMGHTVTVWNRTAEKCDLFIQEGARLGRTPAEVVSTCDITFACVSDPKAAKDLVLGPSGVLQGIRPGKCYVDMSTVDADTVTELAQVIVSRGGRFLEAPVSGNQQLSNDGMLVILAAGDRGLYEDCSSCFQAMGKTSFFLGEVGNAAKMMLIVNMVQGSFMATIAEGLTLAHVTGQSQQTLLDILNQGQLASIFLDQKCQNILQGNFKPDFYLKYIQKDLRLAIALGDAVNHPTPMAAAANEVYKRAKALDQSDNDMSAVYRAYIH
notes: as for B5

- Binding ratio [6]: 1.1
- Kd [6]: 930 nM
- Δ H [6]: -8.18 kcal/mol
- Δ S [6]: -0.783 cal/mol/deg
B6: NPAC.214-225.M6 (F217A) (peptide)
peptide: DPHAHHFLLSQT
notes: Synthetic dodecapeptide; also called NP.M6

- binding result [5]: no binding
B7: GST-NP.d9 (NP.d3, NPAC residues 152-252, with deletion of amino acids 214-222) (other, not shown: a dimerising Fc or GST; small tags and cut ends)
chain: SERGSKSPLKRAQEQSPRKRGRPPKDEKDLTIPESSTVKGMMAGPMAAFKWQPTASEPVKDASQTEKPAVCYQAITKKLKICEEETGSTSIQ
notes: as for B1

- Δ H [6]: -8.29 kcal/mol
- Δ S [6]: -1.3 cal/mol/deg
B9: NPAC.214-225.M8 (D214A/H216A/F217A) (peptide)
peptide: APAAHHFLLSQT
notes: Synthetic dodecapeptide; also called D214A/H216A/F217A triple mutant peptide
